Source: publication PMC5795439

Assays:
[1] = virus release efficiency, p24 western blot, 293T; details: glycan changed form; control: untreated, same construct
[2] = flow cytometry, surface anti-HA, 293T; details: glycan changed form; control: untreated, same construct
[3] = virus release efficiency, p24 western blot, 293T
[4] = flow cytometry, surface anti-HA, 293T
[5] = anti-HA western blot of 293T lysates; details: glycan lost
[6] = immunofluorescence microscopy, anti-tetherin, HeLa; details: glycan changed form; control: untreated HeLa
[7] = virus release efficiency, HeLa endogenous tetherin; details: glycan changed form; control: untreated HeLa
[8] = flow cytometry, surface anti-tetherin, HeLa; details: glycan changed form; control: untreated HeLa
[9] = glycan lost, control: untreated WT tetherin
[10] = glycan lost, control: wild type
[11] = glycan changed form, control: untreated, same construct

tetherin: kifunensine (N92A tetherin)
other: restriction of HIV-1 release [1]: no change | localisation_or_trafficking [2]: decreases

tetherin: kifunensine (N65A tetherin)
other: restriction of HIV-1 release [1]: no change | localisation_or_trafficking [2]: decreases

B1: tetherin: tunicamycin (protein)
parent chain: MASTSYDYCRVPMEDGDKRCKLLLGIGILVLLIIVILGVPLIIFTIKANSEACRDGLRAVMECRNVTHLLQQELTEAQKGFQDVEAQAATCNHTVMALMASLDAEKAQGQKKVEELEGEITTLNHKLQDASAEVERLRRENQVLSVRIADKKYYPSSQDSSSAAAPQLLIVLLGLSALLQ
other: restriction of HIV-1 release, fold_change [3, 9]: decreases | localisation_or_trafficking [4, 9]: decreases | expression_or_secretion ([5]; control: untreated WT tetherin): no change

B2: tetherin: N65,92A (protein)
parent chain: MASTSYDYCRVPMEDGDKRCKLLLGIGILVLLIIVILGVPLIIFTIKANSEACRDGLRAVMECRNVTHLLQQELTEAQKGFQDVEAQAATCNHTVMALMASLDAEKAQGQKKVEELEGEITTLNHKLQDASAEVERLRRENQVLSVRIADKKYYPSSQDSSSAAAPQLLIVLLGLSALLQ
other: restriction of HIV-1 release [3, 10]: abolishes, there was a small (25%) decrease in VRE at 0.8 μg of input DNA | localisation_or_trafficking [4, 10]: decreases | expression_or_secretion ([5]; control: wild type): increases

B3: tetherin: kifunensine (WT tetherin) (protein)
parent chain: MASTSYDYCRVPMEDGDKRCKLLLGIGILVLLIIVILGVPLIIFTIKANSEACRDGLRAVMECRNVTHLLQQELTEAQKGFQDVEAQAATCNHTVMALMASLDAEKAQGQKKVEELEGEITTLNHKLQDASAEVERLRRENQVLSVRIADKKYYPSSQDSSSAAAPQLLIVLLGLSALLQ
other: restriction of HIV-1 release [3, 11]: no change | localisation_or_trafficking [4, 11]: decreases

B4: tetherin: N65A (protein)
parent chain: MASTSYDYCRVPMEDGDKRCKLLLGIGILVLLIIVILGVPLIIFTIKANSEACRDGLRAVMECRNVTHLLQQELTEAQKGFQDVEAQAATCNHTVMALMASLDAEKAQGQKKVEELEGEITTLNHKLQDASAEVERLRRENQVLSVRIADKKYYPSSQDSSSAAAPQLLIVLLGLSALLQ
other: restriction of HIV-1 release [3, 10]: no change | localisation_or_trafficking [4, 10]: no change | expression_or_secretion ([5]; control: wild type): no change

B5: tetherin: N92A (protein)
parent chain: MASTSYDYCRVPMEDGDKRCKLLLGIGILVLLIIVILGVPLIIFTIKANSEACRDGLRAVMECRNVTHLLQQELTEAQKGFQDVEAQAATCNHTVMALMASLDAEKAQGQKKVEELEGEITTLNHKLQDASAEVERLRRENQVLSVRIADKKYYPSSQDSSSAAAPQLLIVLLGLSALLQ
other: restriction of HIV-1 release [3, 10]: no change | localisation_or_trafficking [4, 10]: no change | expression_or_secretion ([5]; control: wild type): no change

B6: tetherin: kifunensine (protein)
parent chain: MASTSYDYCRVPMEDGDKRCKLLLGIGILVLLIIVILGVPLIIFTIKANSEACRDGLRAVMECRNVTHLLQQELTEAQKGFQDVEAQAATCNHTVMALMASLDAEKAQGQKKVEELEGEITTLNHKLQDASAEVERLRRENQVLSVRIADKKYYPSSQDSSSAAAPQLLIVLLGLSALLQ
localisation_or_trafficking [6]: no change | other: restriction of HIV-1 release [7]: no change | localisation_or_trafficking [8]: no change
